Data set [1] relates to alcohol dehydrogenase from Brevibacterium sp KU 1309. The settings on record: reduction of carbonyl compounds; cited from earlier work.
The next data set has as its system Aldehyde dehydrogenase. The data set is described as follows: Aldehyde dehydrogenase (ALD) assay in the reductive direction, cell extracts. The settings on record: cell extracts from MG1655 lacI^Q containing pZA33.
The next data set deals with Alcohol dehydrogenase. The data set is described as follows: Alcohol dehydrogenase (ADH) assay in the reductive direction, cell extracts. The settings on record: cell extracts from MG1655 lacI^Q containing pZA33.
In data set [2] the target is T1, L(+)-lactate dehydrogenase from rabbit muscle (Oryctolagus cuniculus, UniProt P13491).
T1 construct: host or cells: rabbit muscle
The settings on record: compared with that on pyruvate; cited from earlier work.

Data set [3] deals with D(−)-lactate dehydrogenase from L. leichmanii. The settings on record: compared with that on pyruvate; cited from earlier work.
Data set [4] deals with branched chain alpha-ketoacid decarboxylase (BCKA). The settings on record: decarboxylation; cited from earlier work.
Data set [5] has as its system L(+)-lactate dehydrogenase from A. eutrophus. The settings on record: compared with that on pyruvate; cited from earlier work.
For data set [6] the following is noted: Minohara et al., 2002; read-out: Km for O2; cited from earlier work.
Data set [7] has as its target T2, phosphotransbutyrylase (ptb) (Clostridium acetobutylicum, UniProt P58255).
T2 sequence (P58255 whole entry, looked up): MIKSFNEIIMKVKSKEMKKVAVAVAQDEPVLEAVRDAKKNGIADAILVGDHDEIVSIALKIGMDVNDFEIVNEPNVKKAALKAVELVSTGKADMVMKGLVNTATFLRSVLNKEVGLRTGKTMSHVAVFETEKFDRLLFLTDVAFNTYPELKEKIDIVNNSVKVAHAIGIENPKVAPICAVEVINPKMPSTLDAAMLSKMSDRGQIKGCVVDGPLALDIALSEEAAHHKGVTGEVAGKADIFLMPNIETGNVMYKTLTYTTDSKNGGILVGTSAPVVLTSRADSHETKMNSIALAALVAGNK
The data set is described as follows: PTB enzyme activity, butyryl-CoA to butyryl-phosphate, DTNB. Type of data set: biochemical, C. acetobutylicum. The settings on record: extracts of cells with pZA33-0020-0021. The protocol: The enzyme activity of PTB is measured in the direction of butyryl-CoA to butyryl-phosphate as described in Cary et al. J. Bacteriol. 170:4613-4618 (1988). It provides inorganic phosphate for the conversion, and follows the increase in free CoA with the reagent 5,5′-dithiobis-(2-nitrobenzoic acid), or DTNB. DTNB rapidly reacts with thiol groups such as free CoA to release the yellow-colored 2-nitro-5-mercaptobenzoic acid (TNB), which absorbs at 412 nm with a molar extinction coefficient of 14,140 M cm^−1. The assay buffer contained 150 mM potassium phosphate at pH 7.4, 0.1 mM DTNB, and 0.2 mM butyryl-CoA, and the reaction was started by addition of 2 to 50 μL cell extract. The enzyme activity of BK is measured in the direction of butyrate to butyryl-phosphate formation at the expense of ATP. The procedure is similar to the assay for acetate kinase previously described Rose et al., J. Biol. Chem. 211:737-756 (1954). […] This assay links conversion of ATP to ADP by acetate kinase to the linked conversion of ADP and phosphoenolpyruvate (PEP) to ATP and pyruvate by pyruvate kinase, followed by the conversion of pyruvate and NADH to lactate and NAD+ by lactate dehydrogenase. […] The reaction was started by adding 2 to 50 μL cell extract, and the reaction was monitored based on the decrease in absorbance at 340 nm indicating NADH oxidation.

For a further data set, the system named is cytochrome-bd oxidases. The settings on record: cited from earlier work.
Data set [8] has as its system 4-HB to BDO conversion pathway. The data set is described as follows: Production of BDO from 10 mM 4-HB in recombinant E. coli strains. The settings on record: for BDO: adhE2 in pZE13.
Procedure: For the BDO production experiments, cat2 from Porphyromonas gingivalis W83 (gene 0034) was included on pZA33 for the conversion of 4-HB to 4-HB-CoA, while the candidate dehydrogenase genes were expressed on pZE13. The host strain was MG1655 lacI^Q. Along with the alcohol and aldehyde dehydrogenase candidates, we also tested the ability of CoA-dependent succinic semialdehyde dehydrogenases (sucD) to function in this step, due to the similarity of the substrates. Cells were grown to an OD of about 0.5 in LB medium supplemented with 10 mM 4-HB, induced with 1 mM IPTG, and culture broth samples taken after 24 hours and analyzed for BDO as described below.
Finally, the construct was tested for participation in the conversion of 4-HB to BDO. Host strains were transformed with the pZA33-0020-0021 construct described and pZE13-0002, and compared to use of cat2 in BDO production using the aerobic procedure used above in FIG. 5.
A further data set deals with BDO pathway. The format is cell-based, E. coli. The settings on record: host ECKh-432 with aldehyde dehydrogenase; 23G needle.

We go through 11 molecules from US11932845B2, “Microorganisms and methods for production of 4-hydroxybutyrate, 1,4-butanediol and related compounds” (priority 2012, dated 2024).

The Km is the substrate concentration at which the rate is half of its maximum.

Procedure for Aldehyde dehydrogenase: Alcohol (ADH) and aldehyde (ALD) dehydrogenase was assayed in the reductive direction using a procedure adapted from several literature sources (Durre et al., FEMS Microbiol. Rev. 17:251-262 (1995); Palosaari and Rogers, J. Bacteriol. 170:2971-2976 (1988) and Welch et al., Arch. Biochem. Biophys. 273:309-318 (1989). The oxidation of NADH is followed by reading absorbance at 340 nm every four seconds for a total of 240 seconds at room temperature. The reductive assays were performed in 100 mM MOPS (adjusted to pH 7.5 with KOH), 0.4 mM NADH, and from 1 to 50 μl of cell extract. The reaction is started by adding the following reagents: 100 μl of 100 mM acetaldehyde or butyraldehyde for ADH, or 100 μl of 1 mM acetyl-CoA or butyryl-CoA for ALD. The Spectrophotometer is quickly blanked and then the kinetic read is started. The resulting slope of the reduction in absorbance at 340 nm per minute, along with the molar extinction coefficient of NAD(P)H at 340 nM (6000) and the protein concentration of the extract, can be used to determine the specific activity.
Gene candidates for the 4-HB to BDO conversion pathway were next tested for activity when expressed in the E. coli host MG1655 lacI^Q. Recombinant strains containing each gene candidate expressed on pZA33 were grown in the presence of 0.25 mM IPTG for four hours at 37° C. to fully induce expression of the enzyme. Four hours after induction, cells were harvested and assayed for ADH and ALD activity as described above.

As for `O=CCc1ccccc1` [Phenylacetaldehyde], in data set [1], the “Relative Activity” value is reported as 100%.
Consider “0011: Gene ID 0011, adhE, E. coli, Aldehyde/alcohol dehydrogenase [Sample 0011]”, for which, in the data set with Aldehyde dehydrogenase, the “Aldehyde dehydrogenase, Substrate Acetyl-CoA” value is on record as 0.0095 μmol min^−1 mg cell protein^−1 and the “Aldehyde dehydrogenase, Substrate Butyryl-CoA” value is 0.0069 μmol min^−1 mg cell protein^−1. Further, in the data set on Alcohol dehydrogenase, the “Alcohol dehydrogenase, Substrate Acetaldehyde” value was 0.0093 μmol min^−1 mg cell protein^−1 and the “Alcohol dehydrogenase, Substrate Butyraldehyde” value was 0.0265 μmol min^−1 mg cell protein^−1.
As to `CCCCCCCC=O` [1-Octylaldehyde], the “Relative Activity” value in [1] is given as 87%.
In the case of `CC(C=O)c1ccccc1` (stereo not shown) [2-Phenylpropionaldehyde], the “Relative Activity” value in data set [1] was 188%.
As for `O=C(O)CCC(=O)C(=O)O` [2-Oxoglutarate], the “Activity (%) of L(+)-lactate dehydrogenase from rabbit muscle” value in data set [2] is recorded as 0.0%. Further, in data set [3], the “Activity (%) of D(−)-lactate dehydrogenase from L. leichmanii” value was 0.0%. Also, the “activity relative to activity on other branched-chain substrates” value in [4] is 5%. Further, the “Activity (%) of L(+)-lactate dehydrogenase from A. eutrophus” value in [5] is on record as 79.6%.
`CC(=O)c1ccccc1` [Acetophenone]: in data set [1], the “Relative Activity” value is recorded as 0%.
Regarding “cytochrome bd oxidase: E. coli cytochrome d terminal oxidase, encoded by the cyd operon”, in data set [6], the Michaelis constant (Km) was 0.01 µM.

B1: PTB: phosphotransbutyrylase (ptb) from C. acetobutylicum, gene 0020 (protein, UniProt P58255 1-301, looked up)
Phosphate butyryltransferase: T2 sequence (P58255 whole entry, looked up)
B1: the “specific activity of PTB” value in [7] is “approximately 5 U/mg”.

B2: 0026: Gene ID 0026, bdhA, Clostridium acetobutylicum ATCC 824, Butanol dehydrogenase (protein, UniProt Q04944 1-389, looked up)
NADH-dependent butanol …: MLSFDYSIPTKVFFGKGKIDVIGEEIKKYGSRVLIVYGGGSIKRNGIYDRATAILKENNIAFYELSGVEPNPRITTVKKGIEICRENNVDLVLAIGGGSAIDCSKVIAAGVYYDGDTWDMVKDPSKITKVLPIASILTLSATGSEMDQIAVISNMETNEKLGVGHDDMRPKFSVLDPTYTFTVPKNQTAAGTADIMSHTFESYFSGVEGAYVQDGIAEAILRTCIKYGKIAMEKTDDYEARANLMWASSLAINGLLSLGKDRKWSCHPMEHELSAYYDITHGVGLAILTPNWMEYILNDDTLHKFVSYGINVWGIDKNKDNYEIAREAIKNTREYFNSLGIPSKLREVGIGKDKLELMAKQAVRNSGGTIGSLRPINAEDVLEIFKKSY
B2: in the data set with Aldehyde dehydrogenase, the “Aldehyde dehydrogenase, Substrate Acetyl-CoA” value is 0.0005 μmol min^−1 mg cell protein^−1 and the “Aldehyde dehydrogenase, Substrate Butyryl-CoA” value was 0 μmol min^−1 mg cell protein^−1. For the same molecule, in the data set on Alcohol dehydrogenase, the “Alcohol dehydrogenase, Substrate Acetaldehyde” value was 0.0008 μmol min^−1 mg cell protein^−1 and the “Alcohol dehydrogenase, Substrate Butyraldehyde” value is listed as 0.0024 μmol min^−1 mg cell protein^−1.

B3: Cytochrome bo (protein, UniProt P0ABJ1 25-315; P0ABI8 1-663; P0ABJ3 1-204; P0ABJ6 1-109, looked up)
Cytochrome bo(3) ubiquinol … 1: CNSALLDPKGQIGLEQRSLILTAFGLMLIVVIPAILMAVGFAWKYRASNKDAKYSPNWSHSNKVEAVVWTVPILIIIFLAVLTWKTTHALEPSKPLAHDEKPITIEVVSMDWKWFFIYPEQGIATVNEIAFPANTPVYFKVTSNSVMNSFFIPRLGSQIYAMAGMQTRLHLIANEPGTYDGISASYSGPGFSGMKFKAIATPDRAAFDQWVAKAKQSPNTMSDMAAFEKLAAPSEYNQVEYFSNVKPDLFADVINKFMAHGKSMDMTQPEGEHSAHEGMEGMDMSHAESAH
Cytochrome bo(3) ubiquinol … 2: MFGKLSLDAVPFHEPIVMVTIAGIILGGLALVGLITYFGKWTYLWKEWLTSVDHKRLGIMYIIVAIVMLLRGFADAIMMRSQQALASAGEAGFLPPHHYDQIFTAHGVIMIFFVAMPFVIGLMNLVVPLQIGARDVAFPFLNNLSFWFTVVGVILVNVSLGVGEFAQTGWLAYPPLSGIEYSPGVGVDYWIWSLQLSGIGTTLTGINFFVTILKMRAPGMTMFKMPVFTWASLCANVLIIASFPILTVTVALLTLDRYLGTHFFTNDMGGNMMMYINLIWAWGHPEVYILILPVFGVFSEIAATFSRKRLFGYTSLVWATVCITVLSFIVWLHHFFTMGAGANVNAFFGITTMIIAIPTGVKIFNWLFTMYQGRIVFHSAMLWTIGFIVTFSVGGMTGVLLAVPGADFVLHNSLFLIAHFHNVIIGGVVFGCFAGMTYWWPKAFGFKLNETWGKRAFWFWIIGFFVAFMPLYALGFMGMTRRLSQQIDPQFHTMLMIAASGAVLIALGILCLVIQMYVSIRDRDQNRDLTGDPWGGRTLEWATSSPPPFYNFAVVPHVHERDAFWEMKEKGEAYKKPDHYEEIHMPKNSGAGIVIAAFSTIFGFAMIWHIWWLAIVGFAGMIITWIVKSFDEDVDYYVPVAEIEKLENQHFDEITKAGLKNGN
Cytochrome bo(3) ubiquinol … 3: MATDTLTHATAHAHEHGHHDAGGTKIFGFWIYLMSDCILFSILFATYAVLVNGTAGGPTGKDIFELPFVLVETFLLLFSSITYGMAAIAMYKNNKSQVISWLALTWLFGAGFIGMEIYEFHHLIVNGMGPDRSGFLSAFFALVGTHGLHVTSGLIWMAVLMVQIARRGLTSTNRTRIMCLSLFWHFLDVVWICVFTVVYLMGAM
Cytochrome bo(3) ubiquinol … 4: MSHSTDHSGASHGSVKTYMTGFILSIILTVIPFWMVMTGAASPAVILGTILAMAVVQVLVHLVCFLHMNTKSDEGWNMTAFVFTVLIIAILVVGSIWIMWNLNYNMMMH
On to B3, for which the Vmax in the data set on cytochrome-bd oxidases is given as 225 mol O/mol cytochrome bd/s.

B4: 0034: Gene ID 0034, cat2, Porphyromonas gingivalis W83, 4-hydroxybutyrate coenzyme A transferase (protein, listed as Porphyromonas gingivalis)
chain: MKDVLAEYASRIVSAEEAVKHIKNGERVALSHAAGVPQSCVDALVQQADLFQNVEIYHMLCLGEGKYMAPEMAPHFRHITNFVGGNSRKAVEENRADFIPVFFYEVPSMIRKDILHIDVAIVQLSMPDENGYCSFGVSCDYSKPAAESAHLVIGEINRQMPYVHGDNLIHISKLDYIVMADYPIYSLAKPKIGEVEEAIGRNCAELIEDGATLQLGIGAIPDAALLFLKDKKDLGIHTEMFSDGVVELVRSGVITGKKKTLHPGKMVATFLMGSEDVYHFIDKNPDVELYPVDYVNDPRVIAQNDNMVSINSCIEIDLMGQVVSECIGSKQFSGTGGQVDYVRGAAWSKNGKSIMAIPSTAKNGTASRIVPIIAEGAAVTTLRNEVDYVVTEYGIAQLKGKSLRQRAEALIAIAHPDFREELTKHLRKRFG
On to B4, for which the BDO/OD in [8] (Host Strain MG1655 lacI^Q) was 0.042; in data set [8] (Host Strain MG1655 ΔadhE lacI^Q), 0.166. Also, the BDO in data set [8] (Host Strain MG1655 lacI^Q, aerobic procedure) worked out at 0.827 µM; in data set [8] (Host Strain MG1655 ΔadhE lacI^Q, aerobic procedure), 2.084 µM. Moreover, the BDO produced in [8] (with pZE13-0002, aerobic procedure) is 2 mM. The “BDO and GBL levels” value in the data set on BDO pathway was “significantly higher than 2021n”.
